The data set can be described thus: label from the status in PepcDB records.

Here are results for 17 sequences from a protein production outcome set (Wang et al. 2014).

Turning to “MPVKLAQALANPLFPALDSALRSGRHIGLDELDNHAFLMDFQEYLEEFYARYNVELIRAPEGFFYLRPRSTTLIPRSVLSELDMMVGKILCYLYLSPERLANEGIFTQQELYDELLTLADEAKLLKLVNNRSTGSDVDRQKLQEKVRSSLNRLRRLGMVWFMGHDSSKFRITESVFRFGADVRAGDDPREAQRRLIRDGEAMPIENHLQLNDETEENQPDSGEEE”, the protein production result is “failed”.
Turning to “MPVLATSLVSLKVEEPYLPPRNWESLPSQSGRFLPPTRSSASSSSSSSFVSESSLVRLALNALQGVESSLISIEQLSSAFCSEPADRTFHKIPSLWHRLSSTDALGQILRDIGCFGSLVFLLHKFVDHFTRLNLDVESAVEGQGSCKIGENEEVNNKSCYTLVNQAFAIAVRRVLEGYISGLDTLCASIELRRSSNIVDGSDHGSSRLGSLTNVVHPKITLLEVFLHTRELRTQIEALANICDLYDIALSYCASPWECLITEATTRFHGFYRGSDLLTYLYSQLQVADPTHSAMLKFLFLKTCEPYCEFIRSWMFKAELNDPHKEFIVECRSESTSFSWNKPGISPLKSVRERGGLVPCFLNGFLEPIVRAGQQLQVITKLLELCNLPASGHKNYTDLLPCWTYFSTTSPGYPSPITFSKLHIEVMIKKRDDYYRMMQEKLGDFSEKFEVFPGQVPGAISLPISYGDGDKNSIYFTLDESLLIPSTMAIDLTRDQSGSDSDDQNTEDRWFSEIDASCSSECSSTRDSLEASEVGLLDSQSTLVGPPPNYLSALRFSVASNGNCNQNLVQHSDSGYIDNNLVRQGEKADINHQWVDTKPEESTGVCEDDKFRGPLLIKSWPLGGLPRNPFCVDKKSADDDSEDPRNYSGARMEQRHLMNTDERKLFLNNISTSGSCSKHERRHDVLENCLSSKLDLMKDTKVNYPNDVLSMNPLVRCDFLRKHGNTNKRNQGKSLPWFDFSAVDDPSKTCITRIPVRVPIDFQKESHSPQTDRKSHRHANQERFDVEDPKVSSSQLSSGIKGCAEEKKSNAFGGGRWESMLRRSNNPETSAFSDRRQDSSGTFELPLDFVIDKCLLQEIHLQYPSRYFHLLEIYIFSKLAIKLLEEGFGLQEHLLALRRYHFMELADWADVFVVSLWHHKWLVTEADKRIAEIQGFLESSIQRSSCERDICKDRIFLYKRQGTMHIPPSTIGVRSFDFLRLGYRVDWPISIILTCDALTAYADVFSFLVQVKLAAYVLTDVWCSLKVKDMMDLESVHMAYLSEALRIGIQSTDRVPNDSWTKTLGINTSQNFDKELKELHKCHLRSPKHGKYGLSRFWDYLNFNLYYSDILHDSNIFSLIP”, the protein production result is given as “failed”.
As to “MPVSQQCIKACGFMHPRRLQWLTFSTSPAHPVRLFLAHLYSFASRFVMTTPNPDPLHGVTLEQILRALIEHYEWSGLAERIDIRCFKSDPSIKSSLTFLRKTPWAREKVEALYVKLHRGKGW”, the protein production result is listed as “failed”.
Take “MPVYLYYGEDTYSLNQKIDHLVNQNVHAEWKDFNYIKLSGNEKNIAAKVFTEVMTLPFGEGNKIVHTDSDHLIGSLSNEDNNQELENQLSRIPASNILLITSNKKPDSRRTVVKTILKYAQQEEFPLVPCWDKKGIVNLIGKYAAIHQVKFTPDVTDYLVEAIGNNTARVDSEFAKLAVYASEKIISLEEIKQLVSNHNTDYQKLTIAMLRNHSNLAIAQVDKLLDSNEHPLKIVATLTSFFRTWLITKAGVEARLSDIKIAEIAEVKNPKRLYYLKDEIKFVGVQKLKNSLTLLLQLETELKSGTNNLISRIIEICMI”: the protein production result was “failed”.
Turning to “MPWKNTESRYSTMTIALHWLMLVLLAVVYACIEFRGIFPKGSGGRTLIVEAHFMLGLTVFALVWLRLFARAQGVAPKILPTPPHWQRLLSTLMHWALYLFMIAMPILGWLTTSAKGHQVMFYGLDLPLLLAENKPLAKQLQGWHELLGTVGYWLIGLHALAGLYHHYVMRDNTLQRMWRKRGQA”, the protein production entry is recorded as “failed”.
The same measure for “MPWLLPREIAPLHQKALDRYLGSLTERLSDPNVDRNALVREELARLLYGRPYEELLEANPLAAMGLDPEGITFEAEYYAATDLEKFRRVKPLLWFWKVLDLTPLGQSVHSGVAIRRALAPFIFKRVGKNPKFFQNVEFSVGYNLELGDDVVVHRYVFLDDIGGIKIGDRTSLSDYVNVYSHTHHVLASPDVTLKETIIGSGVRITYHATVLAGVRIGDDAMVGTGAVVTKDIPPHAIALGIPARPVRYKVRHDCPYCRKGEPHPSDLVPKLPDRKGNPDYPDFLPPGFGTREAGS”: “failed”.
As to “MPYAIDFGTTNTVIARWNEATRQGNLIDLPSLSHPLGDSGPLVPSLLYVENAALGQVAIAREVLDRGRDISTDTRFFKNFKRGIGVAVQGFLPQLDGHTLSLETLGQWYLDKLIRILTEQEGQGPDCLALTVPVDSFESYRHWLSHTCRSWGVEEVRLVDEPTAAALGYGVGDASQILVLDFGGGTVDFSWVQLGDRGQKGRSGFLLKWGGILGGSKAEEKSALAKVLAKAGANLGGSDIDYWISEYFTEAQGLQVSPWIRRLAERLKIALGEAEEATEVYFDDQALESYEFQLRRSDLTEILQQRQFFERLTALWEQVQQTAQRRGLTPANLDAVLVVGGTSQLPMVQDWINAQFPAGKIRNQQPFGAIALGALQIYQGREVQDYLYHSYGVRYWNRRKNSHNWHPIIKNGQTYPMAEPIELTLGASLDNQPSIELIVGELGSSIGATEVYFDGNQLITRVLENQAFTVQPLNDRNGARQIAQLSPPGVPGGDRIKVKFWVDDQRYLRLTVEDLLQQKLLLENQVVAQLRLEHHHHHH”, the protein production result is listed as “failed”.
Regarding “MPYINELRNHKFLIILVDLLCILAAYIAAFYIRYQGFPAKNWESFVSLLPWILLIGLFFISVYELYALDRKNTLWDILVKIFVAVTFMAFLTMAASYFFREFALPRSILFIASVFTIVLLATWKYVFLKLTRRNVVGKVLFIGDDDNTERMISKIKHPMLKGTSIKQVHPNIPMDKINHYMRHADYIILCTSIQKEKKSMIIYHAMECNKLVYVVPTLYELLLQRSSVTPLDDTMLMSVKPFGLTWDQAFIKRAFDVVTSAFTLICTSPLLPISCNFN”, the protein production entry is “failed”.
“MPYLYLLLAIVSEVIGSAFLKSSDGFSKLYPTITTIISYLISFYFLSKTMQHLPLNIAYASWSGLGLVLTTIVSVLIFKEQINLISIISIILIIFGVVLLNTFGSSH”: the protein production result is listed as “failed”.
On to “MPYMTTDAKEVSGKSFDYIVVGGGTAGCSLAATLSEKYSVLVIERGGSPFGDPLVEERKYFGYSLLNTDEYSSVAQSFTSVDGIENYRGRVLGGSSAINGGFYSRASDEFVKKAGWDKGLVQESYKWVESKVVFMPELTQWQSVVQFGFLEAGFYPYNGYSLEHTQGTKIGGSIYDQCGKRHTSADLLGFGKPNCITVLLNTTVKSIIFDSSNKTRAVGVRFMESDGNSSKSYKVHVEQHRGEVILAAGALGSPQILLLSGIGPENHLKDFDIPVIVNLKEVGRKMSDNPAISLLVDRFSQNRTLEPPQVAAIAEGYKFILESEVLPTDITTTRISIAAKIAFPKSKGRLKLNSTNPRENPSVKFNYLENKADLDACLEMVLHLQHVARSETVTFFLGTQAHDKLVAGDEELKSFCIKNVRTYYHYHGGCVVGSVVDEEYKVNGVKRLRVVDGSTFEESPGTNPMATVLMLGRYQGIKILKEREEQEDTFLSPQGSPQPQP”, for which the protein production entry is on record as “failed”.
Take “MPYVPTPKPVVDRMLELADVDETDVLYDLGSGDGRIVIRAARTHGARGVGIEIDPDLVKKARKNAKEAGVADLVEFRQGDLFEADISEATVVTLYLLPSVNQKLRPILFEQLSPGTPVVSHDFDMGRWAPDRTVDLEGDTVYRWTIPEEIPEDLDELEHHHHHH”: the protein production result is “not failed”.
For the sequence “MQAGNPMSLQSMLPYVTPPVVGAVIGYVTNDIAIRMLFRPLKPWRVFGIRVPLTPGVIPAGRHEFAATIGRMVGTHLVTGTDVARALGKDSFRRELQEAVSGKLDTLLDRDLGTVGSLLPEGFESWLRDGVDLAARRAGETVAGYLQGEDFRRELSLFLRDLEERVLPRELERILAGETGDAVRAGAGRALAALLQSRGVSRAVAGLVDDKLDELLASERPLRELLPPELVELATAQAREAMPVILGRVAEFVRSPEIRDTFEAKLREGVQQYLANLKGTLGFMAGFISVEKLNSYFPGLVGSVTDEVVRWLGEETTHRRVAAMVDQGLGRILDRPLAATVEQLPYRRVALLRRSIRRGALGVVRRPETAGFLLALAERELVRLAADPSRPILERLAPEDDPSRLREGLVGWLTDRLRDPGIRATLERIVAGRVEEWLFNRPLGRLSARISAEVRRDLDQLIYRQVADLLEREAPPLIDALDVARMVEEKINTLDILAVEGLLLSIMQKHFLYINLFGALLGFVMGSFNVLLMGLGR”, the protein production result is listed as “failed”.
On to “MQAPRLRVGIFDDGSSTVNMAEKLDSVGHYVTVLHAPEDIRDFELVVIDAHGVEGYVEKLSAFARRGQMFLHTSLTHGITVMDPLETSGGIVMSAHPIGQDRWVASALDELGETIVGLLVGELGGSIVEIADDKRAQLAAALTYAGFLSTLQRDASYFLDEFLGDPDVTSDIVMDSAQQFQALPSLDEVIAQYDSINNPGRQRLFRDLARRQAEISRAQDIELWAIQKEDR”, for which the protein production entry is listed as “not failed”.
The same measure for “MQASASNSSSYTVNASVLHVRAGSSTSHDIISRVYNGQSLNVIGEENGWYKININGKTGFVSGEFVSKNGTSNSNVSTTGGKNKVTADVLRVRTAPNTSSSVSGRVYEGQTLNVIGQENGWVKINHNGQVGYVSGEFVSGVSSNAGSSNSNTNNNNQESVKPASGNYTVNVSSLRVRTGPSTSHTTVGSVTKGQVVQVVGEVQDWFKINYAGQTAYVSKDYVTKGGSSDNVTQGNNQNNNQNNNVTVQTGGTYVVNATSLRVRTGPATYHSVIGGVLNGTTLNVIGSEGSWFKVNYQGKTGYVSSEFMKFVKGGTTTPEQPKQPEQPNQGAIGDYYINASALNVRSGEGTNYRIIGALPQGQKVQVISENSGWSKINYNGQTGYIGTRYLSKTPVGGAVDNNKPNNNQNNNQNNNNNTGNNSGNSSSILAYAKGMQGVPYVWGGTSANGVDCSGYIYHVFKKFGHNISRQSVAGYWGSLPQTSNPQPGDLIYFQNTYKSGPSHMGIYLGGGSFIQAGDKGVAIASLSNSYWKSHFLGYTKAPLEHHHHHH”: “not failed”.
For “MQAVLNFPDLSPELFSISLFGMEFALRWYALAYIAGIVIAWRLAVLATRRAALWPANTPPMAPARIEDLLTWIILGVILGGRLGFVLFYQPAYYLANPTEILMVWQGGMAFHGGLLGVVIAAWLYSLRHNIPKLSLADLITHTVAPGLLLGRLANFINAELWGRPSDLPWAVIFPGPAAQACPGVVGLCARHPSQLYEAALEGLLLGTLLLWLVWRRGALKRPGLITGVFLAGYGLSRFVVEFFRQPDAQFVTPGNPLGLAWQVGEYGLTMGQLLSLPMIALGLWFVLRARAVPA”, the protein production entry is recorded as “failed”.
With “MQDERWNHPLYTTTAINDEELEGHAYIPGGLKVQTSSPMNDHPGTNPEQLLGLSLSTCLEATLEAVEKEHGLPHTGAVRVKVAFIGARAEYQFLVHAQVMVKGVDFDTAKAFTNEIENRCPVSKLLKNSGNYTIETVTDFKD”, the protein production result is “not failed”.
Take “MQDIFEEIIDYLKGIWLKRRYIIIATWLICPIGWYFVAAMPNVYQSEARVYVDTQSLLRPLLKGLTVETNPDTQIRLMVKTLLSRPNLERISRMTDLDVQASTPAQYEAIIKNLKDNIKISSARRENIYTLSIEDEDPEMAKNIVRSALTVFIENTLGETRSDSDSAQKFLNTQIKDYENRLSNSEARLTSFKQKYSGILPDQSGGYYAKLNGNREKLKAIELDLLENKTRLDSAKKQLAQSVVADTGSDNKIKSENSIQTTYDDRINELEVLLDNLKLRYTEKHPDVIETSRNLEHLNKLRSSEIEKYLAQNNENTGSLKRLSANPVIQEVQIHVNQLENLIASLNVRADNYRQRIIELENRVHTLPEIEAELIALNRGYGITKEKYEELLSRKETAQLAQQADETTDKIQFRVIDPPRKATKPSGPKRFLLFGVVTLIGFAVGIGLSLLMSQLNPVATSTAQLSKITGVPIFGVISANENLGLQQWHKKKTFIFIGSNVLLLCLLVLFVSYFLFPDTIQAPLKRIF”: the protein production result was “failed”.
